Binding result and Kd data for eleven molecules are collected here from PMC6611904, “The transcription factor OsSUF4 interacts with SDG725 in promoting H3K36me3 establishment”.

One data set has as its target His-OsSUF4N (Oryza sativa, UniProt Q653D5 1-105). Put plainly: EMSA; ITC: 100 mM NaCl, 20 mM Tris-HCl pH 8.0, 25 C, 2 mM protein into 0.1 mM DNA; EMSA: LightShift kit binding buffer, 5 ug protein, 0.02 uM probe, poly(dI-dC), 25 C 30 min, 5% PAGE. Conditions: protein: recombinant; tags: His (pET32a). For orientation: In EMSA bound probe runs differently from free probe, usually more slowly.

In the next data set the target is OsSUF4 ZF K36A (Oryza sativa, UniProt Q653D5 10-100, K36A). Put plainly: ITC; ITC: 100 mM NaCl, 20 mM Tris-HCl pH 8.0, 25 C, 2 mM protein into 0.1 mM DNA; EMSA: LightShift kit binding buffer, 5 ug protein, 0.02 uM probe, poly(dI-dC), 25 C 30 min, 5% PAGE. As to conditions: protein: recombinant; tags: pET28-SUMO; Ni column; blunt. On the technique in general: In ITC the heat of successive injections is recorded.
Sequence of OsSUF4 ZF K36A (Q653D5 entry or part of it K36A | K36A K36A): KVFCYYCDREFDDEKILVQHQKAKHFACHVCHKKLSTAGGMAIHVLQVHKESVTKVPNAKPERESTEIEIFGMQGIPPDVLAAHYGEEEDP

Another data set concerns the target OsSUF4 ZF K33A (Oryza sativa, UniProt Q653D5 10-100, K33A). The data set is described as above. Conditions: protein: recombinant; tags: pET28-SUMO; Ni column; blunt.
Data set [1] addresses OsSUF4 zinc finger domain WT (Oryza sativa, UniProt Q653D5 10-100). The data set is described as above. Conditions: protein: recombinant; tags: pET28-SUMO; Ni column; blunt.
The next data set deals with OsSUF4 ZF K31A (Oryza sativa, UniProt Q653D5 10-100, K31A). The data set is described as above. Conditions: protein: recombinant; tags: pET28-SUMO; Ni column; blunt.
Sequence of OsSUF4 ZF K31A (Q653D5 entry or part of it K31A | K31A K31A): as the sequence (Q653D5 entry or part of it K36A | K36A K36A) above, with K22A, A27K counted along it
In the next data set the target is OsSUF4 ZF K43A (Oryza sativa, UniProt Q653D5 10-100, K43A). The description is as above. As to conditions: protein: recombinant; tags: pET28-SUMO; Ni column; blunt.
Sequence of OsSUF4 ZF K43A (Q653D5 entry or part of it K43A | K43A K43A): as the sequence (Q653D5 entry or part of it K36A | K36A K36A) above, with A27K, K34A counted along it
The target of another data set is OsSUF4 ZF K24A (Oryza sativa, UniProt Q653D5 10-100, K24A). Described as above. As to conditions: protein: recombinant; tags: pET28-SUMO; Ni column; blunt.
Sequence of OsSUF4 ZF K24A (Q653D5 entry or part of it K24A | K24A K24A): as the sequence (Q653D5 entry or part of it K36A | K36A K36A) above, with K15A, A27K counted along it
The target in another data set is OsSUF4 ZF 4m (Oryza sativa, UniProt Q653D5 10-100, R18A;K33A;K36A;K43A). The description is as above. As to conditions: protein: recombinant; tags: pET28-SUMO; Ni column; blunt.
Sequence of OsSUF4 ZF 4m (Q653D5 entry or part of it R18A;K33A;K36A;K43A): as the sequence (Q653D5 entry or part of it K36A | K36A K36A) above, with R9A, K24A, K34A counted along it
In the next data set the target is OsSUF4 ZF R18A (Oryza sativa, UniProt Q653D5 10-100, R18A). The description is as above. As to conditions: protein: recombinant; tags: pET28-SUMO; Ni column; blunt.
Sequence of OsSUF4 ZF R18A (Q653D5 entry or part of it R18A | R18A R18A): as the sequence (Q653D5 entry or part of it K36A | K36A K36A) above, with R9A, A27K counted along it
The next data set deals with His-AtSUF4 (full length) (Arabidopsis thaliana, UniProt Q9C5G0 1-367). Put plainly: EMSA; ITC: 100 mM NaCl, 20 mM Tris-HCl pH 8.0, 25 C, 2 mM protein into 0.1 mM DNA; EMSA: LightShift kit binding buffer, 5 ug protein, 0.02 uM probe, poly(dI-dC), 25 C 30 min, 5% PAGE. Conditions: protein: recombinant; tags: His (pET32a).
Sequence of His-AtSUF4 (full length) (Q9C5G0 whole entry): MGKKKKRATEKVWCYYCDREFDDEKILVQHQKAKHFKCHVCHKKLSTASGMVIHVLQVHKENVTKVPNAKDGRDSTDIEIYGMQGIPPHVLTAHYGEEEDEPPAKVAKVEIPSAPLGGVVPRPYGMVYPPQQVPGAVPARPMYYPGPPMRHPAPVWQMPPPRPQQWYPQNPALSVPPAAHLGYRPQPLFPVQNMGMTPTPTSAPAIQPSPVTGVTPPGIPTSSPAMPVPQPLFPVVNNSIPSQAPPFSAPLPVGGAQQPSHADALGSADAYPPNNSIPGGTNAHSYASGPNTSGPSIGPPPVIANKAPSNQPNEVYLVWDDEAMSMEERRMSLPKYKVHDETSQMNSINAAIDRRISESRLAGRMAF

Sequence of His-OsSUF4N (Q653D5 entry or part of it): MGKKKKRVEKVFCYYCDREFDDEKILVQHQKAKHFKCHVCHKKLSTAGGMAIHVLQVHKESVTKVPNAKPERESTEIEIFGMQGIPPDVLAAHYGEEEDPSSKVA
Sequence of OsSUF4 ZF K33A (Q653D5 entry or part of it K33A | K33A K33A): as the sequence (Q653D5 entry or part of it K36A | K36A K36A) above, with K24A, A27K counted along it
Sequence of OsSUF4 zinc finger domain WT (Q653D5 entry or part of it): as the sequence (Q653D5 entry or part of it K36A | K36A K36A) above, with A27K counted along it

B1: Os12g21784 probe (dsDNA)
DNA 1: CTTTCTCTTCGGAAATATAAATATATACCC
DNA 2: GGGTATATATTTATATTTCCGAAGAGAAAG
As for B1, the binding result in the data set with His-OsSUF4N is recorded as “binds”.

B2: ITC 16-bp DNA (dsDNA)
DNA 1: GGGTACGGAAATGGTA
DNA 2: TACCATTTCCGTACCC
Turning to B2, the binding result with OsSUF4 ZF K36A, in the data set with OsSUF4 ZF K33A, in the data set with OsSUF4 ZF K31A, in the data set with OsSUF4 ZF K43A, with OsSUF4 ZF K24A and with OsSUF4 ZF 4m was “no binding” throughout. Further, the binding result with OsSUF4 ZF R18A is listed as “no binding”. Also, the Kd in [1] is 51.3 ± 3.68 µM.

B3: Hd3a-mu8 (dsDNA)
DNA 1: ACAGTTAACTAACGGCCTAAGGGGGGTATAAA
DNA 2: TTTATACCCCCCTTAGGCCGTTAGTTAACTGT
Consider B3, for which the binding result with His-OsSUF4N is given as “no binding”.

B4: RFT1-WT (dsDNA)
DNA 1: AGTATGAGTTTTGGAATCGGAAATATACCGAAC
DNA 2: GTTCGGTATATTTCCGATTCCAAAACTCATACT
Turning to B4, the binding result with His-OsSUF4N is recorded as “binds”.

B5: Hd3a-e (Hd3a-WT) (dsDNA)
DNA 1: ACAGTTAACTAACGGTACGGAAATGGTATAAA
DNA 2: TTTATACCATTTCCGTACCGTTAGTTAACTGT
For the molecule B5, in the data set with His-AtSUF4 (full length), the binding result is recorded as “no binding”.

B6: Os04g49660 probe (dsDNA)
DNA 1: AGGACTAATTCGGAAATCTCCCCTTCCCGT
DNA 2: ACGGGAAGGGGAGATTTCCGAATTAGTCCT
Turning to B6, in the data set with His-OsSUF4N, the binding result was “binds”.

B7: Os09g31486 probe (dsDNA)
DNA 1: CCACCGAAATGACGGAAATGCCCCTGGCCG
DNA 2: CGGCCAGGGGCATTTCCGTCATTTCGGTGG
As to B7, the binding result in the data set with His-OsSUF4N is reported as “binds”.

B8: Os02g08490 probe (dsDNA)
DNA 1: AGACCGTCGATTCGGAAATAAACGGGCCGG
DNA 2: CCGGCCCGTTTATTTCCGAATCGACGGTCT
For B8, the binding result with His-OsSUF4N is reported as “binds”.

B9: Os06g06490 probe (dsDNA)
DNA 1: ATATTTTTTCGCGGAAATTCGGTCTTCACT
DNA 2: AGTGAAGACCGAATTTCCGCGAAAAAATAT
Take B9: the binding result in the data set with His-OsSUF4N is recorded as “binds”.

B10: Os12g01760 probe (dsDNA)
DNA 1: ATCATTTTTTCGGAAATATACAAATGCTGA
DNA 2: TCAGCATTTGTATATTTCCGAAAAAATGAT
For the molecule B10, in the data set with His-OsSUF4N, the binding result is given as “binds”.

B11: Os05g48810 probe (dsDNA)
DNA 1: TATATTCAATGTCGGAAATCATTCCCGTAC
DNA 2: GTACGGGAATGATTTCCGACATTGAATATA
For B11, in the data set with His-OsSUF4N, the binding result is “binds”.

What is called Kd is the equilibrium constant for the complex coming apart.
